Source: patent US20110152500A1

Tests used:
[1] = target: VCAM1-Trx (human) (UniProt P19320); assay: SPR (Biacore), synthetic peptide
[2] = target: VCAM1-Trx (human) (UniProt P19320); assay: SPR (Biacore), immobilisation of VCAM1 not stated

Kd [1]: 318 nM
koff [2]: 0.1 s⁻¹
kon [2]: 330000 M⁻¹ s⁻¹
Binder: QARDCTGSWTWENGKWTWKGPSICPI [Peptide 1 specific to VCAM1 (bipodal-peptide binder)]
